The results in this text go back to the DeepSol protein solubility set.

The series can be described thus: soluble on expression in E. coli; label from the status in PepcDB or PDB records.
Turning to “MRRLPPWMLGGASTGEAAARNGSQPEAPKTKAEKRPKRVQKTKEKDLNLKSDEPKRVPRKIREEAKRSPEVIQSVTVPEDDDLTVDDLLSFANEYVQRDEEGTRKERERSLSVSETTLVLDETNMTTSSQGGTKDSTAEDMLQLLMGPFYKKR”, the “soluble on expression in E. coli” value is recorded as “soluble”.

Take “MRRRQRRQSSNIFHMLTKNQIVELREAFNFMDVNSDTFVDRGDLENFLASIGSPFSESEIDEMMAEGGDSMTYMLFLTMIGERLSCTDSEKSIFNALKEFDDNGDGTIDEKVLREWLTEKGDRMADEDVNLLLRDCVENGRIDCRSLTTKMKYGEIINE”: the “soluble on expression in E. coli” value is “not soluble”.

Take “MRRRSGINTSAVRYCLRKRKDITLLNPIVRKFQYGQHTVTLETGMMARQATAAVMVSMDDTAVFVTVVGQKKAKPGQDFFPLTVNYQERTYAAGRIPGSFFRREGRPSEGETLIARLIDRPIRPLFPEGFVNEVQVIATVVSVNPQVNPDIVAMIGASAALSLSGIPFNGPIGAARVGYINDQYVLNPTQDELKESKLDLVVAGTEAAVLMVESEAELLSEDQMLGAVVFGHEQQQVVIQNINELVKEAGKPRWDWQPEPVNEALNARVAALAEARLSDAYRITDKQERYAQVDVIKSETIATLLAEDETLDENELGEILHAIEKNVVRSRVLAGEPRIDGREKDMIRGLDVRTGVLPRTHGSALFTRGETQALVTATLGTARDAQVLDELMGERTDTFLFHYNFPPYSVGETGMVGSPKRREIGHGRLAKRGVLAVMPDMDKFPYTVRVVSEITESNGSSSMASVCGASLALMDAGVPIKAAVAGIAMGLVKEGDNYVVLSDILGDEDHLGDMDFKVAGSRDGISALQMDIKIEGITKEIMQVALNQAKGARLHILGVMEQAINAPRGDISEFAPRIHTIKINPDKIKDVIGKGGSVIRALTEETGTTIEIEDDGTVKIAATDGEKAKHAIRRIEEITAEIEVGRVYTGKVTRIVDFGAFVAIGGGKEGLVHISQIADKRVEKVTDYLQMGQEVPVKVLEVDRQGRIRLSIKEATEQSQPAAAPEAPAAEQGE”: the “soluble on expression in E. coli” value was “not soluble”.

Consider “MRRYASYPTYSSVHPVGLISRVSGASGIGCRMRRYASYPTYSSVHPVGLISRVSGASGIGCRMRRYASYPTYSSVHPVGLISHVSGASGIGCRMRRHPSYPTYSSVHLVGLISRVSDASGIGCRIQSTGVFYFTWLRANRLSSFSSYWLEHHHHHH”, for which the “soluble on expression in E. coli” value is “not soluble”.

For the sequence “MRSAFRVIRTVREKHACTQCDAIVQAPAPSRPIERGIAGPGLLARVLTSKYAEHTPLYRQSEIYGRQGVELSRSLLSGWVDACCRQLSPLEEALHGYVLTDGKLHADDTPVPVLLPGNKKTKTGRLWTYVRDDRNAGSTLAPAVWFAYSPDRKGIHPQTHLAGFSGVLQADAYAGFNELYRDGRITEAACWAHARRKIHDVHVRTPSALTEEALKRIGELYAIEAEIRGMTAEQRLAERQLKTKPLLKSLESWLREKMKTLSRHSELAKAFAYALNQWPALTYYADDGWAEADNNIAENALRMVSLGRKNYLFFGSDHGGERGALLYSLIGTCKLNGVEPESYLRYVLDVIADWPINRVGELLPWRVALPTE”, the “soluble on expression in E. coli” value is “not soluble”.

For the sequence “MRSKFFSFFTRASRPMKAIPPKIWFETQLKGSGLDKKFQIDELIETQSSVRVFANKKYLPDTETINEALTKVTAVNVSGDKSGYFQNGLPFPNEAGYFEKIPVGHPELLSPIERLTGSKKIVSSHSLVTASGGYPLTNPLLPYRKPIRVSIFSLAGPSFENNYLHYRLFLLDSVQKIIDSPLFSHLHDGLPIQFDEAKKELGEYDTNKLMARIRLGFPYLARFSSGGFYPSFSKSNAIIFLSEAYFRYQLEDVSLLLASVNQTGKETGKAALLKATAVGMGFFAKIDCGYDIQHIIFPYYLRAYKKLLSEHKFPWIAKIEFPIFNEIQQEQFDSIFEDYDGPTKVYRSTRDVLEFREEEIEKYLPAAINPSDAFALTGNEWGYGSVESMIGNNSSIRFDQVHHMNPLILDPSHHVEAQINKDHGVELTVNPRPQSSSSIKL”, the “soluble on expression in E. coli” value was “not soluble”.

Regarding “MRSQRIVHIVSCHAEGEVGDVIVGGVAAPPGATLWEQSRWIARDQDLRNFVLNEPRGGVFRHANLLVPAKDPRAQMGWIIMEPADTPPMSGSNSLCVATVLLDSGILPMREPLTRLLLEAPGGLIEARAECRDGKAERVEIRNVPSFADRLDAWIEVEGLGSLQVDTAYGGDSFVIADARRLGFALRADEAAELVATGLKITHAANEQLGFRHPTNPDWDHLSFCQLAAPPERRDGVLGANNAVVIRPGKIDRSPCGTGCSARMAVLQAKGQLRVGERFVGRSIIGSEFHCHIESLTELGGRPAILPCLSGRAWITGIHQYLLDPDDPWPQGYRLSDTWPGGHC”, the “soluble on expression in E. coli” value is on record as “not soluble”.

In the case of “MRTIPPDDVYISSTLPFEETTTEMMTTMETSTMTEKVCPEMPATTCMDLIKLGAKLELAEVDGCQVVQCTGGQIPRLITRNSVFSPKLYAGLSDATIVFPVPPTTLAGFGGKSFFDYYGLICDTFNGNFYWTMTKYPDGLIDLGGGQPILGSDGSYDGKQAPIEQVDCQEPK”, the “soluble on expression in E. coli” value is “not soluble”.

For the sequence “MRTLFFIPSMGSVRLPLIDFLVKNDIEYVILSRRNHVAVQREIALDMFLEMKDYDTLAFLDEDVVPIEIDFQKVEAKFNEGYDVVCGYYYLKTLRGYSVYRKDWEKEIFDGEVNGCGLGFTFIKREFLEKIKRPAFLAFKPIESPHWIGEDVYFFSTHKPRTYALSSLKAYHFIDERLALSPDRKLILQNDHVARIKHHHHHH”, the “soluble on expression in E. coli” value was “soluble”.

Regarding “MRTPIALSLALCLSLFPSFASAEEAAPEGEGANKPVYVDLTPALVGNYGSGPRLQYYKADIALQVADKDAATKVEHHEPLIRNQLIMLFAQQTDQSLGTVEAKESLRQEALKQVQQTLEQEEGKPLVTDLLFNNLIVQP”, the “soluble on expression in E. coli” value was “not soluble”.

Take “MRVFYDKDCDLSIIQGKKVAIIGYGSQGHAHACNLKDSGVDVTVGLRSGSATVAKAEAHGLKVADVKTAVAAADVVMILTPDEFQGRLYKEEIEPNLKKGATLAFAHGFSIHYNQVVPRADLDVIMIAPKAPGHTVRSEFVKGGGIPDLIAIYQDASGNAKNVALSYACGVGGGRTGIIETTFKDETETDLFGEQAVLCGGCVELVKAGFETLVEAGYAPEMAYFECLHELKLIVDLMYEGGIANMNYSISNNAEYGEYVTGPEVINAESRAAMRNALKRIQDGEYAKMFITEGAANYPSMTAYRRNNAAHPIEQIGEKLRAMMPWIAANKIVDKSKN”: the “soluble on expression in E. coli” value was “soluble”.

Take “MRVGIPTETKNNEFRVAITPAGVAELTRRGHEVLIQAGAGEGSAITDADFKAAGAQLVGTADQVWADADLLLKVKEPIAAEYGRLRHGQILFTFLHLAASRACTDALLDSGTTSIAYETVQTADGALPLLAPMSEVAGRLAAQVGAYHLMRTQGGRGVLMGGVPGVEPADVVVIGAGTAGYNAARIANGMGATVTVLDINIDKLRQLDAEFCGRIHTRYSSAYELEGAVKRADLVIGAVLVPGAKAPKLVSNSLVAHMKPGAVLVDIAIDQGGCFEGSRPTTYDHPTFAVHDTLFYCVANMPASVPKTSTYALTNATMPYVLELADHGWRAACRSNPALAKGLSTHEGALLSERVATDLGVPFTEPASVLAHHHHHH”: the “soluble on expression in E. coli” value is on record as “soluble”.

“MRVISGSKKGRSLKAVAGTSTRPTTDKVKESIFNMIGPYFDGGRGLDLFAGSGGLGIEALSRGFEHCIFVDRDFKAIQTVKSNLKTLELTKHAQVYRNDAERALHAAAKRETGFRGIFLDPPYKEQKLKALLTLIDEYQMLEEDGFIVAEHDREVELPETVEILLEHHHHHH”: the “soluble on expression in E. coli” value is “soluble”.

Consider “MRVLFIGDVFGQPGRRVLQNHLPTIRPQFDFVIVNMENSAGGFGMHRDAARGALEAGAGCLTLGNHAWHHKDIYPMLSEDTYPIVRPLNYADPGTPGVGWRTFDVNGEKLTVVNLLGRVFMEAVDNPFRTMDALLERDDLGTVFVDFHAEATSEKEAMGWHLAGRVAAVIGTHTHVPTADTRILKGGTAYQTDAGFTGPHDSIIGSAIEGPLQRFLTERPHRYGVAEGRAELNGVALHFEGGKATAAERYRFIED”, for which the “soluble on expression in E. coli” value is “soluble”.

With “MRVLITGGNRGLGLQLVKVFHENGHIIYPLVRTEVAVTQLKQMFSCRCFPILADLAADESTEQIKKQLEEYTEYMDLVINNAGITGKETEVLHTNSEELTDLFNIHCLGVIRAVKGTYMALAKSDHPRIINVSSRLGSLHKMANKEFPQGHFSYSYRIAKAAQNMLTLCLQQEFENKGISVTAIHPGKLKTEIGAFDANMTPAEGTKNIYDWVIDSNEDLSGQFIEPGVGEIKW”, the “soluble on expression in E. coli” value was “not soluble”.

Take “MRVLLVTGKLAEEMVRKYGKGADVKVYNIDIAAFITPSMLENEDFSGYDLVLVPGLTYSHNWEDFERRKGVKVRLGPIHAYDLQHVLKLIGKVEFSHKIPACRLVESLRAEETLREIDALDEDCAFEIGGVKVGGSSRMKVVAEIASFCDFDDLRAKIDHYTESGADIIDIGVPLEFDKEWLHKTLKIAVDHSKLPLSIDTFSSKAIEIAVKHGVDMVMSISMDNLKALDLIENQAVVVVERDIDGLLNLVERVGEKVERVIADPILDPPLKVAESIGRYAEFRRRDEKTPLLFGAGNVTELSDADSIGINALLAFIAEELKCNLLFTTEASPKTFGSVRELNIASYLAKAAKIRNSPPKDAGVSLLALKEKVRYEERVELDDFVRAEETREFVRDPLGDFIIQVVDGKIVCKHDRMTIVGEKAKEVADTAIKNNLLSRLDHAAYLGRELMKAEIAALLKKSYIQDRELNFGFYQK”: the “soluble on expression in E. coli” value is recorded as “not soluble”.

On to “MRVVIVGAGLAGLAAAVDLVDAGHRVEIYESRPFVGGKVSSWQDADGNHIEMGLHVFFYNYANLFELMTKVGAIANLLPKEHTHTFINRGGQVGELDFRFPLGAPFNGLKAFFTTRQLSAADKFFNAIALGTSPVVRGLVDYEGAMRQIRALDCMSFAEWFRRHGGSENSLKRLWNPISYALGFIDTEHMSARCMLTIFMMFAAKTTASRLNMLKGSPAEYLLKPLVNYIEARGAKIHLRRRVKEILFRGEDASTWRVEGLVIPRGEALETVTADAYLCACDVPGIQRLIPEAWRSHPTFDNIFKLEAVPVATVQLRFDGWVTELQDPRKQKQVAATGIDNLLYTADADFSCFADLALTSPADYYREGQGSLLQVVLTPGDPFIKASNEEIAQHVLRQVHELFPSSRHLNMTWYSVVKLAQSLYREAPGMDPYRPPQKTPVPNFYLAGSYTQQDYIDSMEGATMSGRQAAQAILAGGHPLEHHHHHH”, for which the “soluble on expression in E. coli” value was “soluble”.

For the sequence “MRWKLLFALLAALLLAACSQSSERVVIGSKPFNEQYILANMIAILLEENGYKAEVKEGLGGTLVNYEALKRNDIQLYVEYTGTAYNVILRKQPPELWDQQYIFDEVKKGLLEADGVVVAAKLGFRDDYALAVRADWAEENGVEKISDLAEFADQLVFGSDPEFASRPDGLPQIKKVYGFEFKEVKQMEPTLMYEAIKNKQVDVIPAYTTDSRVDLFNLKILEDDKGALPPYDAIIIVNGNTAKDEKLISVLKLLEDRIDTDTMRALNYQYDVEKKDAREIAMSFLKEQGLVK”, the “soluble on expression in E. coli” value was “not soluble”.

Take “MRWNICVVGAGKIGQMIAALLKTSSNYSVTVADHDLAALAVLNRMGVATKQVDAKDEAGLAKALGGFDAVISAAPFFLTPIIAKAAKAAGAHYFDLTEDVAATNAVRALAEDSQT”: the “soluble on expression in E. coli” value is “soluble”.

On to “MRWVSALEKRNFLTSFLHNHRLKHPDARFVLKYLLQHPHLLENVQFTETEQKQGRWLIISTAMAEEEGLVFYRRGQKSTSLAAIMGDLALHPNEPLYLTLHFPGKARNFSYLRLIDHQAFENVRRHERHEKMAKAAEQVLDEALKRHEVSILKMQIDQALDRKDMEWFQMLTEQLKKYEGQS”, for which the “soluble on expression in E. coli” value is reported as “not soluble”.

Consider “MRYDVSSNSLYVFCSIVLFSDLRFRIGGKYMAERHMFLKKDPSKENSIIVSNIPAFVGEGVVLAIIDQFASFEVEESFVQRSNTADNSLSQGQLTMSITFDKPEAVIQTLALCQDVGPFTITDFLEDPEFPSVLKDSTTLYRKLFPSEEQIQEMADTYVERYDTEQTEARKEAKRKYSEPDEDGWITVTKAKKAAKSVKLKKEDVPLIGGLNNKKKKVDLAYYTFQIKKNRQEKAQELLKKFEEDRKRITQLKQARNFKPI”, for which the “soluble on expression in E. coli” value is “not soluble”.
